In patent US5420243 one finds ED50 data, which are given here for 4 molecules.

For assay [1], the target named is L6 rat muscle myoblast TGF-β receptor (rat). The experiment in a line: competition against 125I-TGF-β2 on L6 rat muscle myoblast TGF-β receptor (Example 5).
The target is the same in assay [2]. The experiment in a line: competition against 125I-TGF-β2 on L6 rat muscle myoblasts.
The target is the same in assay [3]. The experiment in a line: competition against 125I-TGF-β2 on L6 rat muscle myoblasts; called apparent dissociation constant of approximately 3 µM in paragraph 85.

Ends that are not written are not given here.

Molecule TGF-β2 (from UniProt P61812) (ligand) showed an ED50 in assay [1] of 0.06 nM.

B1: TGF-β2 16-31 dimer (peptide)
peptide: CLRPLYIDFKRDLGWK
modifications: also: disulfide-linked dimer
Consider B1, for which, in assay [2], the ED50 worked out at 30 µM.

B2: TGF-β2 16-47 dimer (peptide)
peptide: CLRPLYIDFKRDLGWKWIHEPKGYNANFCAGA
modifications: also: dimer linked by a single disulfide bond, Cys pairing not settled
B2: the ED50 in assay [3] was 3 µM.

B3: TGF-β2 16-47 monomer (peptide)
peptide: B2 peptide
The molecule B3 came in with an ED50 in assay [2] of 30 µM.
